Test results published in publication PMC7618261 (Journal of molecular biology, 2019).

B1: Alexa Fluor 488-labeled tOmpA (domain or fragment)
chain: APKDNTWYTGAKLGWSQYHDTGFINNNGPTHENQLGAGAFGGYQVNPYVGFEMGYDWLGRMPYKGSVENGAYKAQGVQLTAKLGYPITDDLDIYTRLGGMVWRADTKSNVYGKNHDTGVSPVFAGGVEYAITPEIATRLEYQWTNNIGDAHTIGTRPDNGMLSLGVSYRFG
modifications: Alexa Fluor 488 C5 maleimide on the N-terminal Cys

Key:
[1] = target: Alexa Fluor 488-labeled OmpT (E. coli) (UniProt P09169); assay: MST
SurA WT = target: T1, SurA WT (E. coli, UniProt P0ABZ6 21-428); assay: MST
T1 sequence (looked up): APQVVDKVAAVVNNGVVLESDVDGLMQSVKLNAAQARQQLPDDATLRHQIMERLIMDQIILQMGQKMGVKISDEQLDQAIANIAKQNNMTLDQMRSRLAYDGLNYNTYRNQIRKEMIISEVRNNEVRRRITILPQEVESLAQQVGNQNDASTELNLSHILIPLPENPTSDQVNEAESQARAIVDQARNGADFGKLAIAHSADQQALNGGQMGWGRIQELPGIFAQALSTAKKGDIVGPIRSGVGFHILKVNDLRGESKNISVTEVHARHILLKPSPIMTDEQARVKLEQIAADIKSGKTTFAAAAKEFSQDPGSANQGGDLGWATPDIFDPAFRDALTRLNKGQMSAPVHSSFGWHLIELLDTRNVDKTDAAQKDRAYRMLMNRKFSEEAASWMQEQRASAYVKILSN

| Molecule | Kd [1] [µM] | Kd (SurA WT) [µM] |
| --- | --- | --- |
| SurA WT (from UniProt P0ABZ6 21-428) (natural protein) | 9.3 |  |
| B1 |  | 1.8 ± 0.1 |
